Experimental data published in patent US20210244792A1.

Target: complement C5
Assay: direct binding to C5 (FIG. 4C); method not described

Q: How did the IC50 turn out when “EV576 protein (native, purified from salivary gland extracts of the soft tick Ornithodoros moubata) (from UniProt Q5YD59 19-168)” was run?
A: Its IC50 is 20 µg/mL.
